Reference: patent US20250195212A1, “METHOD FOR GENERATING IN-SITU VASCULAR STENT AND PHOTOCURABLE DRUG-LOADED BALLOON CATHETER FOR IMPLEMENTING THE METHOD” (HANGZHOU MATRIX MEDICAL TECHNOLOGY CO., LTD., priority 2022, published 2025)

Tests used:
[1] = Permeability characterization: penetration into blood vessel slices, laser confocal microscope; type: in vitro ADME; conditions: 1 mg/mL dripped onto inner surface of 2*2 cm blood vessel slice
Experimental: 1 mg/mL of the photosensitive material with blood vessel repair function prepared in Example 1 was dripped onto the inner surface of the blood vessel, and the residual liquid on the inner surface of the blood vessel was wiped dry after a certain period of time, and the penetration depth in the blood vessel was measured using a laser confocal microscope.
Control group: a blood vessel was cut into 2*2 cm slices, with the inner surface facing upward and kept moist with 0.9% (by mass) physiological saline. 1 mg/mL of the third product in Example 1 was dripped onto the inner surface of the blood vessel, and the residual liquid on the inner surface of the blood vessel was wiped dry after a certain period of time, and the penetration depth in the blood vessel was measured using a laser confocal microscope.

[2] = tested on: porcine peripheral blood vessels; assay: Lumen gain and protein cross-linking after angioplasty with riboflavin balloon and photo-activation
Experimental: A porcine peripheral blood vessel was immersed in PBS buffer. Balloons (with a pore size of 50 μm and a surface porosity of 50%) was introduced into the blood vessel. The fluid prepared in Preparation Example 1 was infused to expand the balloons from the compressed state to the inflated state at a pressure of 6 atm. While maintaining the pressure of the balloons, a light source device activated the light-guiding element to emit 450 nm light, with a photocuring duration of 5 minutes.
A porcine peripheral blood vessel was immersed in PBS buffer. Balloons prepared in Preparation Example 6 was pushed into the blood vessel. The compressed balloons were expanded by injecting fluid at a pressure of 6 atm. Then, while maintaining the pressure of the balloons, the light-guiding element emitted light with a wavelength of 450 nm, with a photocuring duration of 5 minutes.
A porcine peripheral blood vessel was immersed in PBS buffer. Balloons prepared in Preparation Example 9 was pushed into the blood vessel. The compressed balloons were expanded by injecting fluid at a pressure of 6 atm. Then, while maintaining the pressure of the balloons, the light-guiding element emitted light with a wavelength of 450 nm, with a photocuring duration of 5 minutes.
A porcine peripheral blood vessel was immersed in PBS buffer. Balloons without riboflavin were pushed into the blood vessel. […]

| SMILES | The time when the drug is observed in the adventitia of blood vessels [1] | protein cross-linking under photo-activation / medial fiber network of treated arteries [2] |
| --- | --- | --- |
| N=C(N)NCCCC(N)C(=O)NCCCCC(NC(=O)C(N)CCCNC(=N)N)C(=O)NCCCCC(NC(=O)C(CCCCNC(=O)C(N)CCCNC(=N)N)NC(=O)C(N)CCCNC(=N)N)C(=O)NCCNC(=O)C(CCCCNC(=O)C(CCCCNc1ccc2c3c(cccc13)C(=O)N(CCOCCOCCOCCN1C(=O)c3cccc4c(NCCOCCOCCOCCN)ccc(c34)C1=O)C2=O)Nc1ccc2c3c(cccc13)C(=O)N(CCOCCOCCOCCN1C(=O)c3cccc4c(NCCOCCOCCOCCN)ccc(c34)C1=O)C2=O)NC(=O)C(CCCCNc1ccc2c3c(cccc13)C(=O)N(CCOCCOCCOCCN1C(=O)c3cccc4c(NCCOCCOCCOCCN)ccc(c34)C1=O)C2=O)Nc1ccc2c3c(cccc13)C(=O)N(CCOCCOCCOCCN1C(=O)c3cccc4c(NCCOCCOCCOCCN)ccc(c34)C1=O)C2=O (centres unmarked) [Experimental group] | 18 s |  |
| Cc1cc2nc3c(=O)[nH]c(=O)nc-3n(C[C@H](O)[C@H](O)[C@H](O)CO)c2cc1C [riboflavin] |  | denser medial fiber network |
